The text below walks through data of the supplement of paper PMC7125110.

B1: glmS ribozyme (parent)
chain: AUAAAAGCGCCAGAACUACAGAAAUGUAGUUGACGAGGAGGAGGUUUAUCGAAUUUUCGGCGGAUGCCUCCAAA

Holding throughout (details): with glucosamine-6-phosphate
The variants in data set [1] derive from B1. Kind of data set: self-cleavage kobs at 40 uM GlcN6P; higher = faster cleavage; RNA array. In short, it runs like this:
(§1)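 Ribozyme variants carrying barcodes were transcribed in situ on sequenced MiSeq chips by E. coli RNA polymerase and tracked at 37 °C with a hybridised Cy3 probe. They were exposed to 40 μM to 10 mM glucosamine-6-phosphate in HEPES/KCl/Mg(OAc)2 buffer. kobs came from exponential decay fits of normalised per-tile medians, and kcat and KM from weighted Michaelis–Menten fits.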

In data set [2] the parent is B1. Kind of data set: self-cleavage kobs at 160 uM GlcN6P; higher = faster cleavage; RNA array. The method in brief: as §1
Data set [3] covers variants of B1. Briefly: self-cleavage kobs at 640 uM GlcN6P; higher = faster cleavage; RNA array. The method in brief:
as §1

Data set [4] covers variants of B1. Briefly: self-cleavage kobs at 10000 uM GlcN6P; higher = faster cleavage; RNA array. The method in brief:
as §1

The variants in data set [5] derive from B1. Kind of data set: self-cleavage kobs at 2500 uM GlcN6P; higher = faster cleavage; RNA array. The method in brief: as §1

± gives the standard error. Variants at the floor of the assay were thinned out. Bounds are passed on as bounds.

In the case of A53C C68A, the “self-cleavage kobs at 40 uM GlcN6P” value in the data set with glucosamine-6-phosphate [1] was under 1e-05 s⁻¹. Also, the “self-cleavage kobs at 160 uM GlcN6P” value with glucosamine-6-phosphate [2] was under 1e-05 s⁻¹. Moreover, the “self-cleavage kobs at 640 uM GlcN6P” value with glucosamine-6-phosphate [3] is under 1e-05 s⁻¹.

Take A33U A48G A53U U57C: the “self-cleavage kobs at 40 uM GlcN6P” value in the data set with glucosamine-6-phosphate [1] is under 1e-05 s⁻¹. The “self-cleavage kobs at 10000 uM GlcN6P” value with glucosamine-6-phosphate [4] was under 1e-05 s⁻¹.

As for G60U C68G, the “self-cleavage kobs at 40 uM GlcN6P” value with glucosamine-6-phosphate [1] was under 1e-05 s⁻¹. Moreover, in the data set with glucosamine-6-phosphate [2], the “self-cleavage kobs at 160 uM GlcN6P” value was under 1e-05 s⁻¹. In addition, the “self-cleavage kobs at 640 uM GlcN6P” value in the data set with glucosamine-6-phosphate [3] is under 1e-05 s⁻¹. In addition, the “self-cleavage kobs at 2500 uM GlcN6P” value in the data set with glucosamine-6-phosphate [5] was under 1e-05 s⁻¹. Besides, in the data set with glucosamine-6-phosphate [4], the “self-cleavage kobs at 10000 uM GlcN6P” value was under 1e-05 s⁻¹.

As for G37U A39U C70G, in the data set with glucosamine-6-phosphate [1], the “self-cleavage kobs at 40 uM GlcN6P” value is under 1e-05 s⁻¹.

As for G29U C50G A53G U55G C67G, the “self-cleavage kobs at 40 uM GlcN6P” value with glucosamine-6-phosphate [1] stood at 0.000349 ± 0.00015 s⁻¹.

C10U C11G G43C G59A: the “self-cleavage kobs at 40 uM GlcN6P” value with glucosamine-6-phosphate [1] was under 1e-05 s⁻¹. Moreover, the “self-cleavage kobs at 160 uM GlcN6P” value with glucosamine-6-phosphate [2] is under 1e-05 s⁻¹. Besides, the “self-cleavage kobs at 2500 uM GlcN6P” value with glucosamine-6-phosphate [5] is under 1e-05 s⁻¹.

For the variant C10U G41U U56C C70U, the “self-cleavage kobs at 40 uM GlcN6P” value with glucosamine-6-phosphate [1] was under 1e-05 s⁻¹.

As for C11G A14U A39U, the “self-cleavage kobs at 40 uM GlcN6P” value with glucosamine-6-phosphate [1] was under 1e-05 s⁻¹.

In the case of G9A G13A A14C C61A, the “self-cleavage kobs at 40 uM GlcN6P” value with glucosamine-6-phosphate [1] was under 1e-05 s⁻¹. For the same variant, the “self-cleavage kobs at 10000 uM GlcN6P” value with glucosamine-6-phosphate [4] was under 1e-05 s⁻¹.

Consider U31A U69C, for which the “self-cleavage kobs at 40 uM GlcN6P” value with glucosamine-6-phosphate [1] came out at 0.000182 ± 6.5e-05 s⁻¹. Also, the “self-cleavage kobs at 160 uM GlcN6P” value with glucosamine-6-phosphate [2] was 0.000243 ± 4.5e-05 s⁻¹. Further, in the data set with glucosamine-6-phosphate [3], the “self-cleavage kobs at 640 uM GlcN6P” value came out at 0.000515 ± 0.00012 s⁻¹. The “self-cleavage kobs at 10000 uM GlcN6P” value with glucosamine-6-phosphate [4] came to 0.0039 ± 0.0012 s⁻¹.

With C10G C16G C34U G43C A52C U55C, the “self-cleavage kobs at 40 uM GlcN6P” value with glucosamine-6-phosphate [1] was under 1e-05 s⁻¹. Also, in the data set with glucosamine-6-phosphate [4], the “self-cleavage kobs at 10000 uM GlcN6P” value is under 1e-05 s⁻¹.

On to A6G A12U U65G, for which the “self-cleavage kobs at 40 uM GlcN6P” value in the data set with glucosamine-6-phosphate [1] was under 1e-05 s⁻¹. Also, the “self-cleavage kobs at 10000 uM GlcN6P” value with glucosamine-6-phosphate [4] is 0.000137 ± 4.1e-05 s⁻¹.

In the case of G35C G40A, the “self-cleavage kobs at 40 uM GlcN6P” value with glucosamine-6-phosphate [1] is under 1e-05 s⁻¹. Besides, in the data set with glucosamine-6-phosphate [2], the “self-cleavage kobs at 160 uM GlcN6P” value is under 1e-05 s⁻¹. Besides, the “self-cleavage kobs at 640 uM GlcN6P” value in the data set with glucosamine-6-phosphate [3] is under 1e-05 s⁻¹. Besides, the “self-cleavage kobs at 2500 uM GlcN6P” value in the data set with glucosamine-6-phosphate [5] is under 1e-05 s⁻¹. Also, in the data set with glucosamine-6-phosphate [4], the “self-cleavage kobs at 10000 uM GlcN6P” value was under 1e-05 s⁻¹.

Turning to G29A G35A C68G, the “self-cleavage kobs at 40 uM GlcN6P” value with glucosamine-6-phosphate [1] was determined as 0.000947 ± 0.00027 s⁻¹. Moreover, the “self-cleavage kobs at 10000 uM GlcN6P” value with glucosamine-6-phosphate [4] was found to be 0.000106 ± 3.5e-05 s⁻¹.

As for G13C A48U C70G, the “self-cleavage kobs at 40 uM GlcN6P” value with glucosamine-6-phosphate [1] is under 1e-05 s⁻¹. The “self-cleavage kobs at 10000 uM GlcN6P” value with glucosamine-6-phosphate [4] is under 1e-05 s⁻¹.

Consider A12G C61A C70U, for which, in the data set with glucosamine-6-phosphate [1], the “self-cleavage kobs at 40 uM GlcN6P” value is under 1e-05 s⁻¹. The “self-cleavage kobs at 10000 uM GlcN6P” value with glucosamine-6-phosphate [4] was under 1e-05 s⁻¹.

For the variant G29C U54G G60A, the “self-cleavage kobs at 40 uM GlcN6P” value with glucosamine-6-phosphate [1] was under 1e-05 s⁻¹. Further, the “self-cleavage kobs at 10000 uM GlcN6P” value in the data set with glucosamine-6-phosphate [4] was under 1e-05 s⁻¹.

A42C G43U A48G G62C C67A C70G: the “self-cleavage kobs at 40 uM GlcN6P” value in the data set with glucosamine-6-phosphate [1] is under 1e-05 s⁻¹. Also, the “self-cleavage kobs at 640 uM GlcN6P” value with glucosamine-6-phosphate [3] was under 1e-05 s⁻¹. Moreover, in the data set with glucosamine-6-phosphate [5], the “self-cleavage kobs at 2500 uM GlcN6P” value is under 1e-05 s⁻¹.

Turning to A12U A14U G32U, in the data set with glucosamine-6-phosphate [1], the “self-cleavage kobs at 40 uM GlcN6P” value is under 1e-05 s⁻¹. In the data set with glucosamine-6-phosphate [4], the “self-cleavage kobs at 10000 uM GlcN6P” value is 8.48e-05 ± 2e-05 s⁻¹.

Turning to G7U G35U U46A C67U U69C, in the data set with glucosamine-6-phosphate [1], the “self-cleavage kobs at 40 uM GlcN6P” value was under 1e-05 s⁻¹. For the same variant, the “self-cleavage kobs at 160 uM GlcN6P” value with glucosamine-6-phosphate [2] was under 1e-05 s⁻¹. For the same variant, the “self-cleavage kobs at 640 uM GlcN6P” value in the data set with glucosamine-6-phosphate [3] is under 1e-05 s⁻¹. Further, the “self-cleavage kobs at 2500 uM GlcN6P” value with glucosamine-6-phosphate [5] is under 1e-05 s⁻¹.

C11G A12C G38A: the “self-cleavage kobs at 40 uM GlcN6P” value in the data set with glucosamine-6-phosphate [1] was under 1e-05 s⁻¹.

G44A C71G: the “self-cleavage kobs at 40 uM GlcN6P” value with glucosamine-6-phosphate [1] is under 1e-05 s⁻¹. For the same variant, the “self-cleavage kobs at 160 uM GlcN6P” value in the data set with glucosamine-6-phosphate [2] was under 1e-05 s⁻¹. Besides, in the data set with glucosamine-6-phosphate [3], the “self-cleavage kobs at 640 uM GlcN6P” value was under 1e-05 s⁻¹. Also, the “self-cleavage kobs at 10000 uM GlcN6P” value in the data set with glucosamine-6-phosphate [4] is under 1e-05 s⁻¹.

On to U2A A3U G32A, for which the “self-cleavage kobs at 40 uM GlcN6P” value with glucosamine-6-phosphate [1] turned out to be 7.12e-05 ± 1.6e-05 s⁻¹. Besides, the “self-cleavage kobs at 2500 uM GlcN6P” value in the data set with glucosamine-6-phosphate [5] came to 0.0028 ± 0.00085 s⁻¹.

Turning to A36C A48C U56A, the “self-cleavage kobs at 40 uM GlcN6P” value with glucosamine-6-phosphate [1] was under 1e-05 s⁻¹.

A6C A36U G37C G60U: in the data set with glucosamine-6-phosphate [1], the “self-cleavage kobs at 40 uM GlcN6P” value is under 1e-05 s⁻¹.

Turning to A39C U49C, the “self-cleavage kobs at 40 uM GlcN6P” value in the data set with glucosamine-6-phosphate [1] was under 1e-05 s⁻¹. The “self-cleavage kobs at 160 uM GlcN6P” value with glucosamine-6-phosphate [2] is under 1e-05 s⁻¹. Moreover, the “self-cleavage kobs at 10000 uM GlcN6P” value in the data set with glucosamine-6-phosphate [4] was under 1e-05 s⁻¹.

As to G7A G29C U57G C70G, the “self-cleavage kobs at 40 uM GlcN6P” value with glucosamine-6-phosphate [1] is 0.000158 ± 7.6e-05 s⁻¹. For the same variant, in the data set with glucosamine-6-phosphate [4], the “self-cleavage kobs at 10000 uM GlcN6P” value amounted to 0.000678 ± 0.00017 s⁻¹.

Turning to A6G C50A C70U, in the data set with glucosamine-6-phosphate [1], the “self-cleavage kobs at 40 uM GlcN6P” value was under 1e-05 s⁻¹.
